Laboratory results published in US20210324099A1 (Chugai, published 2021).
Where a chain is given by its changes, count along the chain named.

B1: A375-SCF060a/B167-Lamlib (antibody, human IgG1, lambda)
heavy: EVQLVESGGGLVKPGGSLRLSCAASGFTFSTFTMNWVRQAPGKGLEWVSSISSKSTYIEYADSFKVRFTISRDNAKNSLYLQMNSLRAEDTAVYYCARYGAKNFLNWVFDYWGQGTLVTVSSASTKGPSVFPLAPSSKSTSGGTAALGCLVKDYFPEPVTVSWNSGALTSGVHTFPAVLQSSGLYSLSSVVTVPSSSLGTQTYICNVNHKPSNTKVDKRVEPKSCDKTHTCPPCPAPELWNGPSVFLFPPKPKDTLMISRTPEVTCVVVDVSDEDPEVKFNWYVDGVEVHNAKTKPREELYNSTYRVVSVLTVLHRDWLNGKEYKCKVSNTALPKPIEKTISKAKGQPREPQVYTLPPSREEMTKNQVSLTCLVKGFYPSDIAVEWESNGQPENNYKTTPPVLDSDGSFFLYSKLTVDKSRWQQGNVFSCSVMHEALHNHYTQKSLSLSP
light: QSALTQPPSASGSPGQTVTISCTGTRYDVGYYEYVSWYQQHPGKAPKLMIYETSKRLSGVPDRFSGSKSGNTASLTVSGLQAEDEADYYCSSYRYEHQVSFGGGTKLTVLGQPKAAPSVTLFPPSSEELQANKATLVCLISDFYPGAVTVAWKADSSPVKAGVETTTPSKQSNNKYAASSYLSLTPEQWKSHRSYSCQVTHEGSTVEKTVAPTECS
notes: copies: 2 + 2
B2: A375-TT16/B167-Lamlib (antibody, human IgG1, lambda)
heavy: EVQLVESGGGLVKPGGSLRLSCAASGFTFSTFTMNWVRQAPGKGLEWVSSISSKSTYIEYADSFKVRFTISRDNAKNSLYLQMNSLRAEDTAVYYCARYGAKNFLNWVFDYWGQGTLVTVSSASTKGPSVFPLAPSSKSTSGGTAALGCLVKDYFPEPVTVSWNSGALTSGVHTFPAVLQSSGLYSLSSVVTVPSSSLGTQTYICNVNHKPSNTKVDKKVEPKSCDKTHTCPPCPAPEYLGDDSVFLFPPKPKDVLMISRTPEVTCVVVDVSHEDPEVKFNWYVDGVEVHNAKTKPREEQYNSTYRVVSVLPVLHQDWLNGKEYKCKVSNKALPKPIEKTISKAKGQPREPQVYTLPPSREEMTKNQVSLTCLVKGFYPSDIAVEWESNGQPENNYKTTPPVLDSDGSFFLYSKLTVDKSRWQQGNVFSCSVMHEALHNHYTQKSLSLSP
light: B1 light
notes: copies: 2 + 2
B3: A375-TT14/B167-Lamlib (antibody, human IgG1, lambda)
heavy: B2 heavy with D242G, V269I
light: B1 light
notes: copies: 2 + 2
B4: dBBK026-P253 (antibody, human IgG1, kappa, V domains shown)
VH: QVQLVQSGAEVKKPGSSVKVSCKASGGEFSNYFISWVRQAPGQGLEWMGMVHPIEGWAVYAQKFQGRVTITADESTSTAYMELSSLRSEDTAVYYCARDRPVFCCPRGAFDIWGQGTLVTVSS
VL: DIVMTQSPLSLPVTPGEPASISCRSSQSLVSPGDNTFLSWYLQKPGQSPQLLIYEIERRFYGVPDRFSGSGSGTDFTLKISRVEAEDVGVYYCMQASTFPRTFGQGTKVEIKR
B5: dBBK070-P253 (antibody, human IgG1, kappa, V domains shown)
VH: QVQLVQSGAEVKKPGSSVKVSCKASGGWFSHYSISWVRQAPGQGLEWMGVVWPIRSFATYAQKFQGRVTITADESTSTAYMELSSLRSEDTAVYYCARDNPVTSWPHGAFDIWGQGTLVTVSS
VL: B4 VL with S31R, G33F, D34G, E57S, R58T, S97H, T98Q
B6: dBBK060-P253 (antibody, human IgG1, kappa, V domains shown)
VH: QVQLVQSGAEVKKPGSSVKVSCKASGGDFSNYVISWVRQAPGQGLEWMGFINPIYGAAGYAQKFQGRVTITADESTSTAYMELSSLRSEDTAVYYCARDEPVASLPHGAFDIWGQGTLVTVSS
VL: B4 VL with S31D, G33W, D34G, E57S, R58N, S97K, T98D, Q105P
B7: dBBK101-P253 (antibody, human IgG1, kappa, V domains shown)
VH: QVQLVQSGAEVKKPGSSVKVSCKASGGAFSYYLISWVRQAPGQGLEWMGFVDPIRGGAFYAQKFQGRVTITADESTSTAYMELSSLRSEDTAVYYCARDRPVNAAPRGAFDIWGQGTLVTVSS
VL: B4 VL with S31G, P32D, G33R, D34G, F37Y, E57G, R58S, R59I, S97A, T98E
B8: dBBK051-P253 (antibody, human IgG1, kappa, V domains shown)
VH: QVQLVQSGAEVKKPGSSVKVSCKASGGGFSSYGISWVRQAPGQGLEWMGALFPISSQASYAQKFQGRVTITADESTSTAYMELSSLRSEDTAVYYCARDRPVDYVPHGAFDIWGQGTLVTVSS
VL: B4 VL
B9: 20H4.9-MB110/20H4.9LC-mk0 (antibody, mouse IgG1, kappa)
heavy: QVQLQQWGAGLLKPSETLSLTCAVYGGSFSGYYWSWIRQSPEKGLEWIGEINHGGYVTYNPSLESRVTISVDTSKNQFSLKLSSVTAADTAVYYCARDYGPGNYDWYFDLWGRGTLVTVSSAKTTPPSVYPLAPGSAAQTNSMVTLGCLVKGYFPEPVTVTWNSGSLSSGVHTFPAVLQSDLYTLSSSVTVPSSTWPSETVTCNVAHPASSTKVDKKIVPRDCGCKPCICTVPEVSDVFIFPPKPKDVLTITLTPKVTCVVVDISKDDPEVQFSWFVDDVEVHTAQTQPREEQFNSTFRSVSELPIMHQDWLNGKEFKCRVNSAAFPAPIEKTISKTKGRPKAPQVYTIPPPKEQMAKDKVSLTCMITDFFPEDITVEWQWNGQPAENYKNTQPIMDTDGSYFVYSKLNVQKSNWEAGNTFTCSVLHEGLHNHHTEKSLSHSPGK
light: EIVLTQSPATLSLSPGERATLSCRASQSVSSYLAWYQQKPGQAPRLLIYDASNRATGIPARFSGSGSGTDFTLTISSLEPEDFAVYYCQQRSNWPPALTFGGGTKVEIKRADAAPTVSIFPPSSEQLTSGGASVVCFLNNFYPKDINVKWKIDGSERQNGVLNSWTDQDSKDSTYSMSSTLTLTKDEYERHNSYTCEATHKTSTSPIVKSFNRNEC
notes: also called NS1-MB110
B10: 20H4.9-MB492/20H4.9LC-mk0 (antibody, mouse IgG1, kappa)
heavy: B9 heavy with T231E, V232P, P233N, S236E, N322D
light: B9 light
notes: also called NS1-MB492

Legend:
human FcRn = human FcRn (human, UniProt P55899 24-290; P61769 21-119, limits assumed); assay: SPR 25C pH 6.0, steady state;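 further: antibody captured on chip via anti-human Fab-lambda ligand, human FcRn injected as analyte in 50 mM phosphate buffer with 150 mM NaCl and P20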
Sequence of human FcRn (P55899 24-290 limits assumed, chain 1 of 2): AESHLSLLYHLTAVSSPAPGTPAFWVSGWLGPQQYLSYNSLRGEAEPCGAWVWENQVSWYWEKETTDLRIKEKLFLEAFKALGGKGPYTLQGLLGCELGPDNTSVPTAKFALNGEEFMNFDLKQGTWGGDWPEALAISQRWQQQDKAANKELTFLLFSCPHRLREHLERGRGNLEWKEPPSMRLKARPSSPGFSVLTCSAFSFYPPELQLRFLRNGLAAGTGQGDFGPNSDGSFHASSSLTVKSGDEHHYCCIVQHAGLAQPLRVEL
Sequence of human FcRn (P61769 21-119 limits assumed, chain 2 of 2): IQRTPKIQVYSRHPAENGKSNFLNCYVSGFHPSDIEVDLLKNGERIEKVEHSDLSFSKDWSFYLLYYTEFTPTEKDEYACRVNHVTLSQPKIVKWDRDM

hFcgRIIIaV [1] = target: T1, hFcgRIIIaV (human, UniProt P08637 17-208); assay: SPR 25C; relative to A375-G1T3/B167-Lamlib;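 further: SPR with antibody captured on an anti-human Fab-lambda chip, human FcγR analyte at 8 nM for FcγRIa or 1000 nM for the others, pH 7.4, FcγR RU per captured antibody unit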
T1 construct: extracellular domain; also called human FcγRIIIa allotype V158
T1 sequence (P08637 17-208 F176V): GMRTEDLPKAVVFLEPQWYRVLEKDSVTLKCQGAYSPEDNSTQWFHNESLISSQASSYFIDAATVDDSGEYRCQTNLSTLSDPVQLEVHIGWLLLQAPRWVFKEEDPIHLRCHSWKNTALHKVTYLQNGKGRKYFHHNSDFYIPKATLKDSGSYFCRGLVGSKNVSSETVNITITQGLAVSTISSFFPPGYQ

hFcgRIIIaF [2] = target: T2, hFcgRIIIaF (human, UniProt P08637 17-208); assay: SPR 25C; relative to A375-G1T3/B167-Lamlib;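 further: SPR with antibody captured on an anti-human Fab-lambda chip, human FcγR analyte at 8 nM for FcγRIa or 1000 nM for the others, pH 7.4, FcγR RU per captured antibody unit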
T2 construct: extracellular domain; also called human FcγRIIIa allotype F158
T2 sequence (P08637 17-208): as the sequence (P08637 17-208 F176V) above, with V160F counted along it

hFcgRIIaH [3] = target: T3, hFcgRIIaH (human, UniProt P12318 34-217); assay: SPR 25C; relative to A375-G1T3/B167-Lamlib;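 further: SPR with antibody captured on an anti-human Fab-lambda chip, human FcγR analyte at 8 nM for FcγRIa or 1000 nM for the others, pH 7.4, FcγR RU per captured antibody unit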
T3 construct: extracellular domain; also called human FcγRIIa type H (H131)
T3 sequence (looked up): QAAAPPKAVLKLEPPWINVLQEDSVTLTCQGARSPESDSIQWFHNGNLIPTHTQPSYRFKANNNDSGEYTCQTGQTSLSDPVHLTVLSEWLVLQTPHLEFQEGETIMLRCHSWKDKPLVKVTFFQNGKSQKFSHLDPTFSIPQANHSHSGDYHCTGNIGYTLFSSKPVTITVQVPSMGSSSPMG

hFcgRIa [4] = target: T4, hFcgRIa (human, UniProt P12314 16-292); assay: SPR 25C; relative to A375-G1T3/B167-Lamlib;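 further: SPR with antibody captured on an anti-human Fab-lambda chip, human FcγR analyte at 8 nM for FcγRIa or 1000 nM for the others, pH 7.4, FcγR RU per captured antibody unit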
T4 construct: extracellular domain; also called human FcγRIa; FcγRI
T4 sequence (P12314 16-292): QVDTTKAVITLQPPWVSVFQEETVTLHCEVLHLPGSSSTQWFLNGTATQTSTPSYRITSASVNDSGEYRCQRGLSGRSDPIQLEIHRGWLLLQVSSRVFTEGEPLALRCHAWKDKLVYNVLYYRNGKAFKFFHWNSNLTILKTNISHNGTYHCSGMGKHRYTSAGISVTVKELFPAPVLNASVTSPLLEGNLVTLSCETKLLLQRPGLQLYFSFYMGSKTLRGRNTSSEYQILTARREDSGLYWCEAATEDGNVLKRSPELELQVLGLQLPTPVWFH

hFcgRIIaR [5] = target: T5, hFcgRIIaR (human, UniProt P12318 34-217); assay: SPR 25C; relative to A375-G1T3/B167-Lamlib
T5 construct: extracellular domain; also called human FcγRIIa type R (R131)
T5 sequence (looked up): T3 sequence (looked up) with H134R

hFcgRIIb [6] = target: T6, hFcgRIIb (human, UniProt P31994 43-217); assay: SPR 25C; relative to A375-G1T3/B167-Lamlib
T6 construct: extracellular domain; also called human FcγRIIb
T6 sequence (looked up): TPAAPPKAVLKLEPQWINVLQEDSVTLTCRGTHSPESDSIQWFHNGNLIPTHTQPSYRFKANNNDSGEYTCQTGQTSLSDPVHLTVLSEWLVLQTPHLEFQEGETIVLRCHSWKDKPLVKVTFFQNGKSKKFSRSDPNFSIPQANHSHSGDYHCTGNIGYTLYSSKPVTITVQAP

hFcgRIIIaV [7] = target: T1, hFcgRIIIaV; assay: SPR 25C
Procedure: (§1) Biacore T200 (GE Healthcare) was used to evaluate the binding activity to the respective human Fcγ receptor (hereafter referred to as FcγR). Measurement was performed at 25° C. using 50 mM phosphate, 150 mM NaCl, 0.05 w/v %-P20, pH 7.4 as buffer. About 1000 RU of antibody was captured using a sensor chip immobilized with CaptureSelect™ Human Fab-lambda Kinetics Biotin Conjugate (Thermo Fisher Scientific) as a molecule for ligand capturing. Human FcγR was diluted to 8 nM for FcγRIa and 1000 nM for other FcγR in the measurement buffer, and it was interacted to the captured antibody. The binding activity of each antibody to FcγR was assessed by calculating the binding amount of FcγR (RU) per unit amount of antibody using Biacore T200 Evaluation Software 2.0.

hFcgRIIIaF [8] = target: T2, hFcgRIIIaF; assay: SPR 25C
Procedure: as §1

hFcgRIIaH [9] = target: T3, hFcgRIIaH; assay: SPR 25C
Procedure: as §1

hFcgRIa [10] = target: T4, hFcgRIa; assay: SPR 25C
Procedure: as §1

hFcgRIIaR [11] = target: T5, hFcgRIIaR; assay: SPR 25C
Procedure: as §1

hFcgRIIb [12] = target: T6, hFcgRIIb; assay: SPR 25C
Procedure: as §1

hCD137.2.3-F.G1d = target: T7, hCD137.2.3-F.G1d (human); assay: ELISA; 500 uM kynurenine, Ab 10 ug/mL
T7 construct: Portion of the human CD137 extracellular region linked to an antibody constant region
T7 sequence (chain, as listed by the source limits assumed): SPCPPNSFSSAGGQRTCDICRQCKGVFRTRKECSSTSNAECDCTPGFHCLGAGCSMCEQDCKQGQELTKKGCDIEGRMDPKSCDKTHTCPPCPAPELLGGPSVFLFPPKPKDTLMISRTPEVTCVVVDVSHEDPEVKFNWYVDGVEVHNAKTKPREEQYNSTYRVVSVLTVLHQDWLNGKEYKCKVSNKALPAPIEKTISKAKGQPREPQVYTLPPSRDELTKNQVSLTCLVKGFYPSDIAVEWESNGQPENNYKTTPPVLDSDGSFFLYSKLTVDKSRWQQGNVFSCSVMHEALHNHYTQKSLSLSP
Procedure: (§2) Whether the obtained antibodies bind to antigens having a partial sequence of CD137 was assessed by ELISA. […] After the unbound antigens were removed from the plates by washing each well of the plates with the Wash Buffer, the wells were blocked with 50 μL of Blocking Buffer (BlockAce-containing TBS) for one hour or more. To wells from which the Blocking Buffer was removed, each well was supplemented with 10 μL of the purified antibodies prepared at 10 μg/mL in TBS with a final concentration of 500 μM L-kynurenine or TBS with a final concentration of 500 μM kynurenine, and it was left at rest for one hour. AP-conjugated anti-human Kappa antibodies (BIOSOURCE) diluted in TBS with a final concentration of 500 μM kynurenine were added to each well after washing with the Wash Buffer containing a final concentration of 500 μM kynurenine (TBS with 0.1% Tween20). After one hour of incubation, the BluePhos phosphate substrate (KPL) was added after washing with Wash Buffer containing 500 μM kynurenine. Color development of the solution in each well was measured by absorbance at 620 nm after the color development reaction of the solution in each well was stopped by adding the BluePhos Stop Solution. The ratio of absorbance by setting the value of the well with an antibody concentration of 0 μg/mL to 1 is shown.

hCD137.1-F-G1d = target: T8, hCD137.1-F-G1d (human); assay: ELISA; 500 uM kynurenine, Ab 10 ug/mL
T8 construct: Portion of the human CD137 extracellular region linked to an antibody constant region
T8 sequence (chain, as listed by the source limits assumed): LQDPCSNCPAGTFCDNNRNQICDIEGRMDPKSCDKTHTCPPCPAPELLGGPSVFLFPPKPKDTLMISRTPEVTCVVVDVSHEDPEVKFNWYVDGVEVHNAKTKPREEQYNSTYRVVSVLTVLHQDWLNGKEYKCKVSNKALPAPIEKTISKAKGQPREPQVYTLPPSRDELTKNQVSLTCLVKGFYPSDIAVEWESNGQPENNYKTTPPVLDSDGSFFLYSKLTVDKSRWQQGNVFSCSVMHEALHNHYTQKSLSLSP
Procedure: as §2

hCD137.1.2-F.G1d = target: T9, hCD137.1.2-F.G1d (human); assay: ELISA; 500 uM kynurenine, Ab 10 ug/mL
T9 construct: Portion of the human CD137 extracellular region linked to an antibody constant region
T9 sequence (chain, as listed by the source limits assumed): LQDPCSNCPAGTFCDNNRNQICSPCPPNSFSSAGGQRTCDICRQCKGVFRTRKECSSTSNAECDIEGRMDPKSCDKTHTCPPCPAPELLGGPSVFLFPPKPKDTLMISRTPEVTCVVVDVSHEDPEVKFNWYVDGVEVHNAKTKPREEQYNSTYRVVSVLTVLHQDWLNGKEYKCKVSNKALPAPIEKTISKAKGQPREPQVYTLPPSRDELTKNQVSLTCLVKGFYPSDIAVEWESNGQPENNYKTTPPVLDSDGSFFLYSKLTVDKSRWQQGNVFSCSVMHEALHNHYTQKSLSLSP
Procedure: as §2

hCD137.3.4-F.G1d = target: T10, hCD137.3.4-F.G1d (human); assay: ELISA; 500 uM kynurenine, Ab 10 ug/mL
T10 construct: Portion of the human CD137 extracellular region linked to an antibody constant region
Procedure: as §2

hCD137(FXa digested) [13] = target: T11, hCD137(FXa digested) (human, UniProt Q07011 24-186); assay: SPR 37C; ATP 1 uM
T11 construct: also called human CD137 extracellular domain
Procedure: (§3) Measurements of human CD137 binding were taken at 37° C. using 20 mM ACES (pH 7.4), 150 mM NaCl, 2 mM MgCl₂, and 0.05% Tween20 as running buffer. At first, antibodies were captured by interacting antibody solutions prepared in running buffer with the rabbit anti-mouse IgG (Thermo Scientific)-immobilized Series S Sensor Chip CMS (GE Healthcare). The human CD137-binding activity in the presence of ATP and in the absence of ATP was then assessed by interacting with a human CD137 solution prepared in running buffer supplemented with a desired concentration of ATP, or a human CD137 solution prepared in running buffer without ATP. […] The chip was regenerated using 25 mM NaOH and 10 mM Glycine-HCl (pH 1.5), and measurements were performed by repeatedly capturing antibodies. Dissociation constant (KD) of the respective antibodies for human CD137 was calculated using Biacore T200 Evaluation Software 2.0. Specifically, the association rate constant ka (L/mol/s) and the dissociation rate constant kd (1/s) were calculated by global fitting of the sensorgrams obtained by measurement with the 1:1 Langmuir binding model, and the dissociation constant KD (mol/L) was calculated from these values.

hCD137(FXa digested) [14] = target: T11, hCD137(FXa digested); assay: SPR 37C; ATP 10 uM
Procedure: as §3

hCD137(FXa digested) [15] = target: T11, hCD137(FXa digested); assay: SPR 37C; ATP 100 uM
Procedure: as §3

hCD137(FXa digested) [16] = target: T11, hCD137(FXa digested); assay: SPR 37C; no ATP
Procedure: as §3
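Wherever binding per 1RU of antibody is given: biacore SPR with antibody captured on an anti-human Fab lambda chip, human FcγR injected at 1000 nM (FcγRIa at 8 nM) in pH 7.4 phosphate buffer.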

| Binder | Kd (human FcRn) | relative binding amount (hFcgRIIIaV [1]) | relative binding amount (hFcgRIIIaF [2]) | relative binding amount (hFcgRIIaH [3]) | relative binding amount (hFcgRIa [4]) | relative binding amount (hFcgRIIaR [5]) | relative binding amount (hFcgRIIb [6]) | binding per 1RU of antibody (hFcgRIIIaV [7]) | binding per 1RU of antibody (hFcgRIIIaF [8]) | binding per 1RU of antibody (hFcgRIIaH [9]) | binding per 1RU of antibody (hFcgRIa [10]) | binding per 1RU of antibody (hFcgRIIaR [11]) | binding per 1RU of antibody (hFcgRIIb [12]) | absorbance ratio (hCD137.1-F-G1d) | absorbance ratio (hCD137.1.2-F.G1d) | other results |
| --- | --- | --- | --- | --- | --- | --- | --- | --- | --- | --- | --- | --- | --- | --- | --- | --- |
| B1 | 1010 nM | 0.01 | 0.05 | 0.82 | 0.03 | 0.99 | 4.31 | 0.0008 RU | 0.0011 RU | 0.0463 RU | 0.0021 RU | 0.0459 RU | 0.0472 RU |  |  |  |
| B2 | 1510 nM | 0 | 0 | 0.22 | 0.04 | 0.77 | 9.94 | -0.0002 RU | 0.0001 RU | 0.0126 RU | 0.0034 RU | 0.0359 RU | 0.109 RU |  |  |  |
| B3 | 1770 nM | 0 | 0 | 0.07 | 0.05 | 0.14 | 7.34 | 0.0003 RU | 0 RU | 0.0042 RU | 0.0045 RU | 0.0067 RU | 0.0805 RU |  |  |  |
| B4 |  |  |  |  |  |  |  |  |  |  |  |  |  | 1 | 1.2 | absorbance ratio (hCD137.2.3-F.G1d): 1.1 |
| B5 |  |  |  |  |  |  |  |  |  |  |  |  |  | 1.8 |  | absorbance ratio (hCD137.3.4-F.G1d): 1.2 |
| B6 |  |  |  |  |  |  |  |  |  |  |  |  |  | 1.2 | 1.4 | absorbance ratio (hCD137.2.3-F.G1d): 1.2 |
| B7 |  |  |  |  |  |  |  |  |  |  |  |  |  | 1.3 | 1.2 |  |
| B8 |  |  |  |  |  |  |  |  |  |  |  |  |  | 1.2 | 1.2 |  |
| B9 |  |  |  |  |  |  |  |  |  |  |  |  |  |  |  | Kd (hCD137(FXa digested) [13]): 56.5 nM; Kd (hCD137(FXa digested) [14]): 53.9 nM; Kd (hCD137(FXa digested) [15]): 51.9 nM; Kd (hCD137(FXa digested) [16]): 61 nM |
| B10 |  |  |  |  |  |  |  |  |  |  |  |  |  |  |  | Kd (hCD137(FXa digested) [13]): 54.9 nM; Kd (hCD137(FXa digested) [14]): 53.5 nM; Kd (hCD137(FXa digested) [15]): 50.4 nM; Kd (hCD137(FXa digested) [16]): 61.6 nM |
